MIN6 cell number after 24 h of incubation with increasing doses of human RSPO1, against controls data for one substance are collected here from PMC12147903.

Assay [1] addresses T1, leucine-rich repeat-containing G-protein coupled receptor 4 (Lgr4) (mouse (endogenous in MIN6)) (UniProt A2ARI4).
T1 sequence: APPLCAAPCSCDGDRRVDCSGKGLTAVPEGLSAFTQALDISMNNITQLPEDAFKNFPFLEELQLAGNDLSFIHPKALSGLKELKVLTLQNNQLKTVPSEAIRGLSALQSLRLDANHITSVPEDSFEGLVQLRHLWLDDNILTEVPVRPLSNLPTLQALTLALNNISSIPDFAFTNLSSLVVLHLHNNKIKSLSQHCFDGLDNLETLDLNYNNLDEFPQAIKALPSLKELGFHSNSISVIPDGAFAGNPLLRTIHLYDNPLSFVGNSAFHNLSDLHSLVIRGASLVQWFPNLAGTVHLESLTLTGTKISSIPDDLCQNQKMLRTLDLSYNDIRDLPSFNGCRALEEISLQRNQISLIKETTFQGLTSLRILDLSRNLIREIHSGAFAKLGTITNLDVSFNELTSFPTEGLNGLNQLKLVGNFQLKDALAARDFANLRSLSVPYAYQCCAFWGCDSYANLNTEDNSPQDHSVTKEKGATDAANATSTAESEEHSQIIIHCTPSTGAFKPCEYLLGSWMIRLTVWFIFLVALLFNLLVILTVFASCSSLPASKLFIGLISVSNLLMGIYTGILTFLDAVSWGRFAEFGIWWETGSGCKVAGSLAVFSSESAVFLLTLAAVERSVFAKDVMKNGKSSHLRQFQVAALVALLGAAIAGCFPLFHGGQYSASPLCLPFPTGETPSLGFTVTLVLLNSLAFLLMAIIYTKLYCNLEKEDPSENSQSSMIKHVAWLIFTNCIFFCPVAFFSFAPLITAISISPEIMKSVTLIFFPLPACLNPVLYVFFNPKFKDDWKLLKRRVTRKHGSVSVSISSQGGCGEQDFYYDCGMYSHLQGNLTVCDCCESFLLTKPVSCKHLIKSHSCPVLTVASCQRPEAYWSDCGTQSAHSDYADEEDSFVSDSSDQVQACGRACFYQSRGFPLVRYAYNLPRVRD

Assay [2] addresses E3 ubiquitin ligase zinc RING finger 3 (Znrf3) (mouse (endogenous in MIN6)) (UniProt Q5SSZ7).
UniProt Q5SSZ7, sequence (Q5SSZ7 53-913): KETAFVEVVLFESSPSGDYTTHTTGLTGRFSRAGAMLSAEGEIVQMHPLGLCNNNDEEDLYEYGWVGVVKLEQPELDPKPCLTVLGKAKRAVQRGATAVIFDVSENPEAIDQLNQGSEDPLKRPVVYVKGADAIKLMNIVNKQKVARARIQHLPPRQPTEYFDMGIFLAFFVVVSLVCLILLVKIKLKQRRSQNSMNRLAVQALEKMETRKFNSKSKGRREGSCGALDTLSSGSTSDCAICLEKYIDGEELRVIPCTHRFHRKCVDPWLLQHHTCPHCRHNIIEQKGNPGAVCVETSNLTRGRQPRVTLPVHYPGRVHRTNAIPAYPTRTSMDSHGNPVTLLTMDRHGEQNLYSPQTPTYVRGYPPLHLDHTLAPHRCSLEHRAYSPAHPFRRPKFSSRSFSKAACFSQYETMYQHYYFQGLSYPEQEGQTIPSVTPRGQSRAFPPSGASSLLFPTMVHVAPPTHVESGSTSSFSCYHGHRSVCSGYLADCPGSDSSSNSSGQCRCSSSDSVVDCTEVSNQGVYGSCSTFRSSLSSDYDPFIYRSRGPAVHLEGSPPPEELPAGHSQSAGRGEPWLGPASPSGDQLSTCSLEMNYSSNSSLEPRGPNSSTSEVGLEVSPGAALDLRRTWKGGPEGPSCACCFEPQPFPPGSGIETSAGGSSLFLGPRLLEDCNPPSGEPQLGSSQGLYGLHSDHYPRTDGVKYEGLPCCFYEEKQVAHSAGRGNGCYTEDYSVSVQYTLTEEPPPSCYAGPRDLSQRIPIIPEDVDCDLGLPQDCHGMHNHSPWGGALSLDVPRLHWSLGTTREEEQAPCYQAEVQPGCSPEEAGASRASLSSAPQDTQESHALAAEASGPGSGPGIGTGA

human RSPO1, sequence (Q2MKA7 21-263): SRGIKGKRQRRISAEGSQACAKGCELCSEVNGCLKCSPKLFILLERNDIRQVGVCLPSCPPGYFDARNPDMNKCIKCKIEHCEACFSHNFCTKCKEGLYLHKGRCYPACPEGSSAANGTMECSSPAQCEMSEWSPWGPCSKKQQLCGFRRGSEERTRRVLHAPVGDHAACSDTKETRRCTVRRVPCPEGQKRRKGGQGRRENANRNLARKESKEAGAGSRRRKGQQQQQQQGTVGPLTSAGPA

In the case of “human RSPO1 (from UniProt Q2MKA7 21-263) (ligand)”, the MIN6 cell number after 24 h of incubation with increasing doses of human RSPO1, against controls in assay [1] and in assay [2] was 2.08 fold each time.
